Assays:
[1] = biological target: aIgE-Fab (Fab fragment of Omalizumab, Xolair); assay: SPR Biacore 3000, Fab on CM5 chip, peptide analyte, 1:1 fit
[2] = biological target: aRSV-Fab (Fab fragment of Palivizumab, Synagis); assay: as above
[3] = biological target: aTNFa-Fab (Fab fragment of Infliximab, Remicade); assay: as above
[4] = biological target: aTNFa-Fab (Fab fragment of Infliximab, Remicade); assay: dynamic binding capacity on a 1 mL-gel column, 1 mg/mL aTNFa-Fab at […], 55% breakthrough

Substance	Ka [1] [M⁻¹]	Ka [2] [M⁻¹]	Ka [3] [M⁻¹]	55% DBC [4] [mg/mL/gel]
LB1t-Wild.1d (B1 domain of PpL312 with deletion of the N-terminal region)	1.12e+09	4.4e+06	30000	
LB2t-Wild.1d (B2 domain of PpL312 with deletion of the N-terminal region)		1e+06		
LB3t-Wild.1d (B3 domain of PpL312 with deletion of the N-terminal region)	3.77e+08			
LB4t-Wild.1d (B4 domain of PpL312 with deletion of the N-terminal region)	1.08e+09	1.38e+07	300000	
LB5t-Wild.1d (B5 domain of Protein L of Peptostreptococcus magnus 312 strain with deletion of the N-terminal region, single domain)	4.43e+08		700000	
LC1t-Wild.1d (C1 domain of PpL3316 with deletion of the N-terminal region)	2.71e+07	2.3e+06		
LC2t-Wild.1d (C2 domain of PpL3316 with deletion of the N-terminal region)		9.2e+06		
LC3t-Wild.1d (C3 domain of PpL3316 with deletion of the N-terminal region)		8.7e+06		
LC4t-Wild.1d (C4 domain of PpL3316 with deletion of the N-terminal region)	4.18e+09	1.93e+07		
commercially available Protein L carrier (HiTrap Protein L, GE Healthcare Bioscience)				4.8

From patent US20170327535A1
